A short description of data set [1]: Retention of liposome-encapsulated inulin fluorescein in rat circulation after tail vein injection. It counts as in vivo. Conditions: rats, blood samples 5 minutes and 28 hours, versus control nanoliposomes (FIG. 6). How it is done:
FIG. 6: Effect of Pol-PLI on stability of liposomes in rat blood (in vivo): InFl-containing Liposomes were injected to the tail vein of rats, and the retention of drug in the circulation was monitored for 28 hour, by determination of the drug level in blood samples taken 5 minutes and 28 hours after injection, and expressed as percent of the initial, injected InFl amount.

Data set [2] in a line: Size stability of liposomes with different polymer-conjugated lipids on heated incubation, dynamic light scattering. Conditions: DMPC liposomes, 55° C., day 1 vs day 17, versus control nanoliposomes.
Description: FIG. 3: Size stability of liposomes with different polymer-conjugated lipids (Po-Ls): Liposomes with or without the indicated Po-L were incubated at 55° C. for 17 days, and the change in their size was monitored using dynamic light scattering. […] DMPC=dimyristoyl phosphatidyl-choline; HyPE=HyPE=Hyaluronic acid (HA)-conjugated Phosphatidyl-ethanolamine (PE); Dex (5)-PE=Dextran (MW 5K)-conjugated PE; Dex(40)=Dextran (MW 40K)-conjugated PE; Heta-PE=Hetastarch (hydroxyethylstarch)-conjugated PE; Hem-PE=Hemaccel (Polygeline)-conjugated PE.
The size of the mixed nano-liposomes was determined by dynamic light scattering.

Turning to “Haemaccel-Glutaryl-phosphatidyl-ethanolamine [Hem-PE]”, the “release of encapsulated drug from nanoliposomes, in vivo” value in data set [1] was “markedly slowed down the drug release”. Besides, the “nanoliposome size stability (FIG. 3)” value in data set [2] is reported as “more stable nanoliposome size than control nanoliposomes”.

These data come from patent US11911507B2, “Liposomes comprising polymer-conjugated lipids and related uses” (Yissum Research Development Company of the Hebrew …, priority 2011, dated 2024).
